In publication PMC6868016:

How the values were obtained:
[1] = target: Halo7-GluA1 (GluA1 tagged with Halo7 at its N-terminus, pcDNA3.1B) (mouse); experiment: single-molecule fluorescence tracking (TIRF), colocalization durations, simultaneous two colours; living HEK293 cells, plasma membrane, ATTO594 on ACP tags and rhodamine110 on Halo7 tags, colocalization = within 240 nm; lifetimes corrected for photobleaching; 37 °C (ACP-TM with Halo7-TM at 22 °C)
Target sequence in this assay (P23818 19-907): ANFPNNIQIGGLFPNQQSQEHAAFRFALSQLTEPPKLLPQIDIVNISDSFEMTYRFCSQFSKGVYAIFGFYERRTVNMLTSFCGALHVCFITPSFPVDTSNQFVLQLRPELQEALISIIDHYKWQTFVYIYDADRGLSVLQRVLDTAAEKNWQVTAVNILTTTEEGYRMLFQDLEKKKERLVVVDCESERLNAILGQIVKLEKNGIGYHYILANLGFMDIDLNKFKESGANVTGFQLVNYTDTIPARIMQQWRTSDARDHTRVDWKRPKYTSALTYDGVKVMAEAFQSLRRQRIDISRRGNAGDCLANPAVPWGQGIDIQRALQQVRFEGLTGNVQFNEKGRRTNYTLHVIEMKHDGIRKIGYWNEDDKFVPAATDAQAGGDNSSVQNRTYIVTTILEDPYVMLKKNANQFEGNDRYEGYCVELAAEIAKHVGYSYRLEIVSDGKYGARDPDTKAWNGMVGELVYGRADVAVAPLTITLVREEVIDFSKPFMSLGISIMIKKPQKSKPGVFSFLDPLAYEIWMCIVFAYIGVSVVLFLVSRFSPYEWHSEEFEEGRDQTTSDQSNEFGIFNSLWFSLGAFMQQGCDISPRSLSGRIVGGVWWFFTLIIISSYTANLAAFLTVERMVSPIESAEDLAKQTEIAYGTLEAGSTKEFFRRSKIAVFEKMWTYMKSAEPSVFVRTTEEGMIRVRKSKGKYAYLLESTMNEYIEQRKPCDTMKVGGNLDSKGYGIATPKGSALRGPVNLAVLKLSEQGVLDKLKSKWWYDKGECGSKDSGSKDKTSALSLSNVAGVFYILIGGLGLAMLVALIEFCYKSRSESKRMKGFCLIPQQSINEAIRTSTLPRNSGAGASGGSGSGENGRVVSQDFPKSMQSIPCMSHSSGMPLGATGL

[2] = target: Halo7-GluA2 (GluA2 tagged with Halo7 at its N-terminus, pcDNA3.1B) (UniProt P23819); experiment: as above
Halo7-GluA2 (GluA2 tagged with Halo7 at its N-terminus, pcDNA3.1B), sequence (P23819 25-883): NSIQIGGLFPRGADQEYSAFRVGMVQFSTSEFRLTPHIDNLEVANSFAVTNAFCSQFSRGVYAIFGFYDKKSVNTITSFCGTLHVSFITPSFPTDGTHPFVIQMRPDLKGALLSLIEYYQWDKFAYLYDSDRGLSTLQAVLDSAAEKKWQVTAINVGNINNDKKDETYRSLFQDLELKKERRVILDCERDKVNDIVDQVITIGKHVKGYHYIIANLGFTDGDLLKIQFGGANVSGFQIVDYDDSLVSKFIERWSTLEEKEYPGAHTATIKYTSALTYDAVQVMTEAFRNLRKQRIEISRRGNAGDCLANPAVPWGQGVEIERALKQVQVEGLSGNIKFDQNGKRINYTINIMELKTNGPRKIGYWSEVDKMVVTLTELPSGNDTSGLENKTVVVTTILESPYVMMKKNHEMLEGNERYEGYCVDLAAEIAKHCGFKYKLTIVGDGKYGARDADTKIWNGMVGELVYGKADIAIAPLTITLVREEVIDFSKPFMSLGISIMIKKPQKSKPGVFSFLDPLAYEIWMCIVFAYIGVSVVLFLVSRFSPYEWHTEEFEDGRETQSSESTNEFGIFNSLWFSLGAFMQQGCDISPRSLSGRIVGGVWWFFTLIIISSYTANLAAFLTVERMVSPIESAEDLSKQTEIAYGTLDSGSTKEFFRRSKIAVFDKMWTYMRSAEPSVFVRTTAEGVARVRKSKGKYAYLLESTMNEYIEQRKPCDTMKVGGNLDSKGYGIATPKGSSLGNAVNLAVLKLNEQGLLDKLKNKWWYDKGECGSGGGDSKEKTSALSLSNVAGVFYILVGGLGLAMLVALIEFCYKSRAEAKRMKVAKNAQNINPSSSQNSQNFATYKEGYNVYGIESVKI

[3] = target: ACP-GluA1 (GluA1 tagged with the acyl carrier protein at its N-terminus) (mouse); experiment: single-molecule fluorescence tracking (TIRF), colocalization durations, single colour; living HEK293 cells, plasma membrane, 33 ms per frame, colocalization = two spots within 240 nm; duration histograms fitted with a single exponential, lifetimes corrected for photobleaching; 37 °C (monomer references ACP-TM and Halo7-TM at 22 °C); GluA1 and GluA2 homodimers also with TARP2-mGFP overexpression (lifetimes not significantly altered)
[4] = target: ACP-GluA1ΔNTD (ACP-GluA1 with the N-terminal domain deleted) (mouse); experiment: as above
[5] = target: ACP-GluA1ΔNTD (ACP-GluA1 with the N-terminal domain deleted) (mouse); experiment: single-molecule fluorescence imaging (TIRF), distribution of spot signal intensities; living HEK293 cells, plasma membrane, various number densities of expressed molecules; intensity histograms of the initial ten frames fitted with the sum of four (references: two) lognormal functions for monomers, dimers, trimers, tetramers; incidental colocalizations not told apart from true assemblies; also with 0.1 mM AMPA or 10 mM L-glutamate (fractions not altered)
[6] = target: Halo7-GluA1 (GluA1 tagged with Halo7 at its N-terminus, pcDNA3.1B) (mouse); experiment: single-molecule fluorescence tracking (TIRF), colocalization durations, single colour; living HEK293 cells, plasma membrane, 33 ms per frame, colocalization = two spots within 240 nm; duration histograms fitted with a single exponential, lifetimes corrected for photobleaching; 37 °C (monomer references ACP-TM and Halo7-TM at 22 °C); GluA1 and GluA2 homodimers also with TARP2-mGFP overexpression (lifetimes not significantly altered)

ACP-GluA1 (GluA1 tagged with the acyl carrier protein at its N-terminus) (receptor), sequence (P23818 19-907): as the sequence (P23818 19-907) above
ACP-GluA1ΔNTD (ACP-GluA1 with the N-terminal domain deleted) (domain or fragment), sequence (P23818 378-907, stated change not applied): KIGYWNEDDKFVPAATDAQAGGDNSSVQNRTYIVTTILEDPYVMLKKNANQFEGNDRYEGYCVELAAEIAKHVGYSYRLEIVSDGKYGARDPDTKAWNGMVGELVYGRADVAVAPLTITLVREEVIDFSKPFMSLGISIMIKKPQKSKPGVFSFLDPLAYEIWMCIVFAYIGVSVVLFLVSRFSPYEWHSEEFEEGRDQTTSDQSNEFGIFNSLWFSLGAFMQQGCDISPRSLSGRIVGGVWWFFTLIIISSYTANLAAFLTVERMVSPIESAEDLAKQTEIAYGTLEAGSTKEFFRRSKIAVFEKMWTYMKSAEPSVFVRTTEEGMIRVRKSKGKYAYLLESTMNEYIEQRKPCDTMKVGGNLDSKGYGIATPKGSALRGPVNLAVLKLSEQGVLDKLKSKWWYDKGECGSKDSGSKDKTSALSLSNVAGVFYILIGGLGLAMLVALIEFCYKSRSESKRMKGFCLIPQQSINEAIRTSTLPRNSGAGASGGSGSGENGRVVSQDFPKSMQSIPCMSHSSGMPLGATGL
Halo7-GluA1 (GluA1 tagged with Halo7 at its N-terminus, pcDNA3.1B) (receptor), sequence (P23818 19-907): as the sequence (P23818 19-907) above

ACP-GluA1 (GluA1 tagged with the acyl carrier protein at its N-terminus) (receptor)
colocalization lifetime, homodimer [1]: 177 ms
colocalization lifetime, GluA1/A2 heterodimer (average of the two tag combinations) [2]: 334 ms
colocalization lifetime, GluA1/A2 heterotetramer (average of the two tag combinations) [2]: 208 ms
exponential lifetime, GluA1/A2 heterodimer [2]: 335 ms
colocalization lifetime, homodimer [3]: 164 ms
colocalization lifetime, homotetramer [3]: 98 ms
colocalization lifetime, homotrimer [3]: 117 ms

ACP-GluA1ΔNTD (ACP-GluA1 with the N-terminal domain deleted) (domain or fragment)
colocalization lifetime, homodimer [4]: 100 ms
colocalization lifetime, homotetramer [4]: 41 ms
tetramer fraction, fold smaller than that of full-length GluA1 (at 1–1.2 copies μm^−2) [5]: 3 to 4 fold

Halo7-GluA1 (GluA1 tagged with Halo7 at its N-terminus, pcDNA3.1B) (receptor)
colocalization lifetime, homodimer [6]: 164 ms
